# B1: fluorescein-labeled α11.2 IQ domain peptide AAs 1644-1668, K1647A (peptide)
# peptide: not shown
# modifications: fluorescein covalently linked to the N-terminal amino group
# B2: fluorescein-labeled α11.2 IQ domain peptide AAs 1644-1668, F1648A (peptide)
# peptide: not shown
# modifications: fluorescein covalently linked to the N-terminal amino group
# B3: fluorescein-labeled α11.2 IQ domain peptide AAs 1644-1668, Y1649A (peptide)
# peptide: not shown
# modifications: fluorescein covalently linked to the N-terminal amino group
# B4: fluorescein-labeled α11.2 IQ domain peptide AAs 1644-1668, I1654A (peptide)
# peptide: not shown
# modifications: fluorescein covalently linked to the N-terminal amino group
# B5: fluorescein-labeled α11.2 IQ domain peptide AAs 1644-1668, Q1655A (peptide)
# peptide: not shown
# modifications: fluorescein covalently linked to the N-terminal amino group
# Biological target: apo-calmodulin (UniProt P0DP23 1-149)
# Experiment: fluorescence polarisation
row,Binder,Kd
1,B1,44.2 µM
2,B2,32.4 µM
3,B3,61.9 µM
4,B4,141 µM
5,B5,22.3 µM

# Source: paper PMC5704914 (Biochemistry, 2017)
